Columns and labels:
[1] = biological target: T1, Aβ1–40 (Homo sapiens, UniProt P05067); experiment: IM-MS analysis of complex formation with Aβ1–40; type: binding; settings: alanine substituted variants of leucine enkephalin
[2] = biological target: T1, Aβ1–40; settings: cited from earlier work
[3] = test system: Aβ; settings: incubated in excess with leucine enkephalin, compared with control; cited from earlier work

T1 sequence (P05067 672-711 limits assumed): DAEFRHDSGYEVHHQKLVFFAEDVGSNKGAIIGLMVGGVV

Row | Substance | Complex formation with Aβ1–40 (IM-MS signal) [1] | Stoichiometric ratios of Aβ:leucine enkephalin complexes [2] | Aβ fibrillation (TEM and gel) [3]
1 | AGGFL: alanine substituted variant of leucine enkephalin (Leu-enkephalin; UniProt P01210 230-234, looked up, variant Y1A) | complexes formed | – | –
2 | Leucine enkephalin acetate hydrate | – | 1:1 to 1:3, and from 2:1 to 2:3 | decreased Aβ fibrillation
3 | YGAFL: alanine substituted variant of leucine enkephalin (Leu-enkephalin; UniProt P01210 230-234, looked up, variant G3A) | complexes formed | – | –
4 | YGGAL: alanine substituted variant of leucine enkephalin (Leu-enkephalin; UniProt P01210 230-234, looked up, variant F4A) | no measureable complex signals | – | –
5 | YGGFA: alanine substituted variant of leucine enkephalin (Leu-enkephalin; UniProt P01210 230-234, looked up, variant L5A) | no measureable complex signals | – | –
